Results taken from the supplement of paper PMC7125110.
± gives the standard error. For some assays here: This sample holds only a part of the variants without activity.

B1: glmS ribozyme (parent)
chain: AUAAAAGCGCCAGAACUACAGAAAUGUAGUUGACGAGGAGGAGGUUUAUCGAAUUUUCGGCGGAUGCCUCCAAA

Tests used:
Settings in all cases: with glucosamine-6-phosphate
glucosamine-6-phosphate [1] = variants of: B1; assay: kcat; higher = faster cleavage; RNA array
Procedure, shortened: (§1)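 Over ~14 h at 37 °C, tiles were imaged as glucosamine-6-phosphate (40 μM to 10 mM) in HEPES/KCl/Mg(OAc)2 buffer flowed across sequenced MiSeq chips. The chips carried barcoded ribozyme variants transcribed in situ by E. coli RNA polymerase and tracked with a hybridised Cy3 probe. After normalisation to baseline and to non-cleaving reference variants, one- or two-exponential decay fits of per-tile medians gave kobs. kcat and KM followed from weighted Michaelis–Menten fits across concentrations.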

glucosamine-6-phosphate [2] = variants of: B1; assay: self-cleavage kobs at 640 uM GlcN6P; higher = faster cleavage; RNA array
Procedure, shortened: as §1

glucosamine-6-phosphate [3] = variants of: B1; assay: self-cleavage kobs at 2500 uM GlcN6P; higher = faster cleavage; RNA array
Procedure, shortened: as §1

glucosamine-6-phosphate [4] = variants of: B1; assay: self-cleavage kobs at 10000 uM GlcN6P; higher = faster cleavage; RNA array
Procedure, shortened: as §1

glucosamine-6-phosphate [5] = variants of: B1; assay: self-cleavage kobs at 160 uM GlcN6P; higher = faster cleavage; RNA array
Procedure, shortened: as §1

glucosamine-6-phosphate [6] = variants of: B1; assay: KM; higher = weaker cofactor use; RNA array
Procedure, shortened: as §1

glucosamine-6-phosphate [7] = variants of: B1; assay: self-cleavage kobs at 40 uM GlcN6P; higher = faster cleavage; RNA array
Procedure, shortened: as §1

| Variant | kcat (glucosamine-6-phosphate [1]) [s⁻¹] | self-cleavage kobs at 640 uM GlcN6P (glucosamine-6-phosphate [2]) [s⁻¹] | self-cleavage kobs at 2500 uM GlcN6P (glucosamine-6-phosphate [3]) [s⁻¹] | self-cleavage kobs at 10000 uM GlcN6P (glucosamine-6-phosphate [4]) [s⁻¹] | self-cleavage kobs at 160 uM GlcN6P (glucosamine-6-phosphate [5]) [s⁻¹] | KM (glucosamine-6-phosphate [6]) [µM] | self-cleavage kobs at 40 uM GlcN6P (glucosamine-6-phosphate [7]) [s⁻¹] |
| --- | --- | --- | --- | --- | --- | --- | --- |
| C11A U55A | 0.000149 ± 2.2e-05 | 0.000125 ± 4e-05 | 0.000203 ± 4.1e-05 | 0.000135 ± 1.4e-05 |  |  |  |
| C11U G29C C50G C68G | 7.23e-05 ± 1.9e-05 | 7.71e-05 ± 2.1e-05 | 9.67e-05 ± 1.5e-05 | 5.44e-05 ± 1e-05 | 0.000134 ± 2.7e-05 |  |  |
| A64U C71G | 1.96e-05 ± 1.5e-06 |  |  |  |  |  |  |
| A14G C50A | 7.1e-05 ± 2e-06 |  | 3.98e-05 ± 9.6e-06 | 5.99e-05 ± 7e-06 |  | 1890 ± 220 |  |
| A12U A52C A53U C70G | 1.09e-05 ± 3.5e-06 |  |  |  |  |  |  |
| C61U | 1.4e-05 ± 3.1e-06 |  | 2.23e-05 ± 2.6e-06 | 1.19e-05 ± 1.4e-06 |  |  | < 1e-05 |
| G29A C58A | 0.000173 ± 2.2e-06 | 7.35e-05 ± 1.6e-05 | 0.000126 ± 2.9e-05 | 0.00016 ± 3e-05 |  | 875 ± 32 |  |
| C16U G66U | 0.00129 ± 0.00016 | 0.000375 ± 4.5e-05 | 0.000956 ± 0.00011 | 0.00105 ± 0.00011 | 9.95e-05 ± 2e-05 | 1550 ± 340 | 3.86e-05 ± 7.8e-06 |
| A15U A53C | 0.000734 ± 0.00026 | 0.000643 ± 0.00016 |  | 0.000636 ± 0.00012 | 0.00014 ± 4.7e-05 |  |  |
| G41U A52U | 0.000103 ± 1e-05 |  | 7.47e-05 ± 1.3e-05 | 8.78e-05 ± 1.2e-05 |  | 1340 ± 510 |  |
| C58U C71A | 7.75e-05 ± 1.6e-05 |  |  | 2.61e-05 ± 1.2e-05 |  |  |  |
| G7A C50A | < 1e-05 |  | < 1e-05 |  | < 1e-05 |  | < 1e-05 |
| A14U G32C C71A | 3.18e-05 ± 4.6e-06 |  |  | 3.33e-05 ± 1.2e-05 |  |  | < 1e-05 |
| A53G C71A | 0.00448 ± 0.002 | 0.00169 ± 0.00037 | 0.00297 ± 0.0007 | 0.00857 ± 0.0012 | 0.00085 ± 0.00013 |  | 0.000374 ± 4.3e-05 |
| C10G C70A | < 1e-05 |  |  | < 1e-05 |  |  |  |
| G43U C67U | 5.98e-05 ± 3.8e-06 |  | 5.2e-05 ± 1.1e-05 | 5.46e-05 ± 7.3e-06 |  | 699 ± 280 |  |
| A42G G44A | 0.00011 ± 2.6e-05 |  | 7.65e-05 ± 1.8e-05 | 8.49e-05 ± 1.1e-05 |  |  |  |
| A39G G41C | 4.55e-05 ± 7.4e-06 |  | 5.57e-05 ± 1.5e-05 | 3.84e-05 ± 1.2e-05 |  |  | < 1e-05 |
| A39U U54G | 0.0173 ± 0.0074 | 0.00453 ± 0.001 |  | 0.018 ± 0.0044 | 0.00169 ± 0.00043 |  | 0.000704 ± 0.00014 |

| Variant | kcat (glucosamine-6-phosphate [1]) [s⁻¹] | self-cleavage kobs at 640 uM GlcN6P (glucosamine-6-phosphate [2]) [s⁻¹] | self-cleavage kobs at 2500 uM GlcN6P (glucosamine-6-phosphate [3]) [s⁻¹] | self-cleavage kobs at 10000 uM GlcN6P (glucosamine-6-phosphate [4]) [s⁻¹] | self-cleavage kobs at 160 uM GlcN6P (glucosamine-6-phosphate [5]) [s⁻¹] | KM (glucosamine-6-phosphate [6]) [µM] | self-cleavage kobs at 40 uM GlcN6P (glucosamine-6-phosphate [7]) [s⁻¹] |
| --- | --- | --- | --- | --- | --- | --- | --- |
| G44C A53U | 7.99e-05 ± 9.3e-07 |  | 5.52e-05 ± 1.4e-05 | 7.13e-05 ± 1.1e-05 |  | 1170 ± 57 |  |
| U47G C70G | 0.000127 ± 1.9e-05 | 0.000101 ± 1.2e-05 | 0.000138 ± 1.5e-05 |  | 0.000147 ± 2.1e-05 |  | 5.74e-05 ± 9e-06 |
| U45G U54G | 0.0116 ± 0.0048 | 0.00187 ± 0.00046 | 0.00436 ± 0.0015 | 0.0084 ± 0.0012 | 0.000252 ± 9.5e-05 |  | 0.000213 ± 3.6e-05 |
| U30A A52G | 0.00117 ± 0.00025 | 0.000114 ± 1.2e-05 | 0.00054 ± 0.00022 | 0.000737 ± 0.00012 | 4.07e-05 ± 1.7e-05 | 5730 ± 1500 |  |
| U31C G59A | 1.58e-05 ± 4.5e-06 |  |  |  |  |  |  |
| A14C A42U | 3.4e-05 ± 1.6e-05 |  |  | 2.17e-05 ± 5.9e-06 |  |  |  |
| C10A C34U C67G C68G | 4.25e-05 ± 6.7e-06 |  | 4.25e-05 ± 9.3e-06 |  | 4.7e-05 ± 8.5e-06 |  |  |
| G9C G60A | < 1e-05 | < 1e-05 |  |  |  |  |  |
| G37A U69A | 7.14e-05 ± 8.5e-06 |  |  | 4.06e-05 ± 8.5e-06 |  | 7590 ± 2000 |  |
| A15C C58G | 0.000128 ± 2.1e-05 | 4.09e-05 ± 1.2e-05 | 5.08e-05 ± 1.8e-05 | 0.000111 ± 1.4e-05 |  |  |  |
| A14C C71G | 0.000465 ± 0.00016 | 0.000228 ± 7.6e-05 | 0.00017 ± 2.9e-05 | 0.00038 ± 4.5e-05 | 3.11e-05 ± 1e-05 |  |  |
| A15U C70A | 6.56e-05 ± 1e-05 | 3.49e-05 ± 1.2e-05 | 6.73e-05 ± 7e-06 | 4.87e-05 ± 1.1e-05 |  |  |  |
| C34A C71G | 1.15e-05 ± 3.9e-06 |  |  |  | < 1e-05 |  |  |
| G43U U56A | 1.76e-05 ± 3.4e-06 |  |  |  |  |  | < 1e-05 |
| A15U U56C | 0.00101 ± 4.2e-05 | 0.000221 ± 2.7e-05 | 0.000551 ± 6.9e-05 | 0.0008 ± 9.1e-05 | 6.26e-05 ± 9.4e-06 | 2320 ± 150 |  |
| U31C C70A | 6.32e-05 ± 4.7e-06 | 5.83e-05 ± 9.7e-06 | 5.7e-05 ± 1.6e-05 | 5.89e-05 ± 1.2e-05 | 2.96e-05 ± 1.2e-05 | 135 ± 56 |  |
| U31A C70G | 0.000226 ± 2.5e-05 | 0.000116 ± 1.3e-05 | 0.000169 ± 2.4e-05 | 0.000235 ± 3.2e-05 | 6.6e-05 ± 1.6e-05 | 570 ± 170 |  |
| U54G A64G | 0.0237 ± 0.011 | 0.0071 ± 0.0013 | 0.0145 ± 0.0059 | 0.0227 ± 0.0052 | 0.00149 ± 0.00039 |  | 0.000837 ± 0.0001 |
| G38A C58G C70U | 1.98e-05 ± 8.1e-06 |  |  |  |  |  |  |
